Laboratory results as given in patent publication US20250145724A1 (TWIST BIOSCIENCE, published 2025).

What was measured:
hA2b receptor = target: T1, hA2b receptor (human, UniProt P29275 1-332); experiment: In vitro specificity, flow cytometry MFI at 100 nM IgG on hA2b
T1 construct: whole, on cells; also called adenosine A2B receptor
T1 sequence (looked up): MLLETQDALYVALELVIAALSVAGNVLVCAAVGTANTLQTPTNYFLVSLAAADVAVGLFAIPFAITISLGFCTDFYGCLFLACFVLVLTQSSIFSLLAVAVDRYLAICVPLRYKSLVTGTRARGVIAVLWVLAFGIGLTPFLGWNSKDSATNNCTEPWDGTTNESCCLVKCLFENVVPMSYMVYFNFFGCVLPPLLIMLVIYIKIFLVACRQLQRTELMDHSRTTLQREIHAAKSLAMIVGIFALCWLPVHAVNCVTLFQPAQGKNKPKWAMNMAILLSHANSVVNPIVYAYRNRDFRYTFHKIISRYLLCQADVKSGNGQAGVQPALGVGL

hA3 receptor = target: T2, hA3 receptor (human, UniProt P0DMS8 1-318); experiment: In vitro specificity, flow cytometry MFI at 100 nM IgG on hA3
T2 construct: whole, on cells
T2 sequence (looked up): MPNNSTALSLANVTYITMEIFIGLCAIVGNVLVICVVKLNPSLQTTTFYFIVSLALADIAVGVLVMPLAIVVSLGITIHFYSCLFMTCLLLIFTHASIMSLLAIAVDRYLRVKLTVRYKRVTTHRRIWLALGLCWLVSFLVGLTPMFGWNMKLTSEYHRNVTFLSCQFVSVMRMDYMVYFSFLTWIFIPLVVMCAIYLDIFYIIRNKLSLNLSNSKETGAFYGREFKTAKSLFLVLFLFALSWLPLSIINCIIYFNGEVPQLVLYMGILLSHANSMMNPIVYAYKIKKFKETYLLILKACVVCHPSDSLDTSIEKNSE

hA1 receptor = target: T3, hA1 receptor (human, UniProt P30542 1-326); experiment: In vitro specificity, flow cytometry MFI at 100 nM IgG on hA1
T3 construct: whole, on cells
T3 sequence (looked up): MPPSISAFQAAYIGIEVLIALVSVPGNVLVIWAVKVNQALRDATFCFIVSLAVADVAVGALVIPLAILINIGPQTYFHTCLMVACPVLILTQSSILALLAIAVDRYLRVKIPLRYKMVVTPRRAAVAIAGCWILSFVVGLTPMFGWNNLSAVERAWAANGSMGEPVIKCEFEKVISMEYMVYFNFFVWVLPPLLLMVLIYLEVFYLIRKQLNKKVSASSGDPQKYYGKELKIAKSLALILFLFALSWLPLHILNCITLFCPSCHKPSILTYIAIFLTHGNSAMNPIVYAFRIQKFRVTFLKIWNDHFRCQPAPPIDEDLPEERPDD

Measured: binding result

B1: A2A-81 (antibody, V domains shown)
VH: QVQLQESGPGLVKPSGTLSLTCAVSGGSISSSNWWSWVRQPPGKGLEWIGEIYHSGSTNYNPSLKSRVTISVDKSKNQFSLKLGSVTAADTAVYYCAREVVSGLYGTIFDYWGQGTLVTVSS
VL: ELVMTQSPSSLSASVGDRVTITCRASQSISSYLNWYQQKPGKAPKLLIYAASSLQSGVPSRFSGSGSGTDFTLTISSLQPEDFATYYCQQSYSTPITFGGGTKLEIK
notes: Tested as IgG
no binding (tested: 100 nM): hA2b receptor | hA3 receptor | hA1 receptor
